Laboratory results: the domain aggregation screens of Martell et al. (2025)

Assay: soluble fraction after stress (log2 fold change); higher = more stays soluble; pooled small domains, quantitative proteomics
Conditions: stress: 50 degC
How it was run: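 The stress applied to every library was 50°C. These custom libraries of small protein domains were pooled and measured at high throughput with quantitative proteomics as the read-out. Aggregation propensity is expressed as the base-two logarithm of the fold change in how much of each protein remains soluble. The higher the value, the more of that protein stays in solution.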

Going from “HMERLKRVTLSLNQSNYSVTEIARRLQAITGIKDITVVEDEQAVYLKVDPATFDLTLAQQAV” to “HMILSTNFFRHIVPKEYQTSYGTMKKWLTDHNVIGTNSIPQGIGYRIPTQGLSSTFSFKVVDVLPDR”, the “soluble fraction (log2)” value falls from -0.218 to -0.525.

First: HMQFHQDNYALEFIRDLQPVDGAIILSRFKQFDLVELEKAKKIKFSDEHMAWTLYDYDIKKIN
Second: HMADEIQIGLQKAIQSLPEKQKLVFSMRYYDEIPYDEMSKILDMSVGTLKTNYHYAKQKIEDFLQNH
The “soluble fraction (log2)” value of the first is lower: -2.3 for the first, -1.05 for the second.

Going from “HMTIENTDTFLETLWEQVQRASVDENGIITSRVLIWDEGTKLDEILSWFDKRHSLGALYLQFG” to “HMRPFAMNLLEKHKADIEVWLKHPNMTNTQIKRLLEELGTSVSVSSIDRFISTSFPKLPKHT”, the “soluble fraction (log2)” value rises from -2.47 to -0.17.

Compared with “HMDVNKDLLGETLEKAKSYKADDWRKASYEALQKAIVEAEAVYKDEEADQVAVDRKVAALNKAINNLEAKG”, “HMGRLNMRRIRDVLRLKFGQGLSERQVAASLGLSKTSVGTYLHRARQAGLTWPLPQGLDDDGLELLLFP” is lower in “soluble fraction (log2)” value: -0.234 for the first, -1.29 for the second.

Going from “HMDSVVPNVVGMTAEKANKALTDAGLNVKITGATIGSGAVVHSQSIPAGTVTSKGTVVSIEMRFAAAEGD” to “HMGAFAIHTASELSAGMRIRHERFGPGVITGIDTANPASGARIQVDFDNGTSKTLLLSYAKFQI”, the “soluble fraction (log2)” value falls from -0.135 to -0.622.

First: HMLQQNRAVEAEQLARKGLSYAQSNIQQAALWRLVAEATEQQGKVDAALNAKNKAMQLEMAG
Second: HMGESVVVPDLRGKTLEEARAILKKVDLDYEINDSTYSKTAVPGTIRDIVPAPGSHVKAGRILFVSING
The “soluble fraction (log2)” value of the first is higher: 0.173 for the first, -0.145 for the second.

Compared with “HMGLLVPELTAEENVSLAAMIAGVPRQQARSISADLLNRLGLGQMLDRRMGEMSGGQAQRVAIAPIYGKF”, “HMRATLTDETARVVQEPTSESISLTSLRKGEEFEIGKVIRKKKEVWVTVTTSSGVKGYISGDTHIF” is higher in “soluble fraction (log2)” value: -0.274 for the first, -0.0573 for the second.

Compared with “HMHQLQLDSRSRLHMTGVIEVESFDEATIVLTTTRGTLIVRGENLHLQLLRLDGGEVLVDGTVDSLSYE”, “HMKKNNTTPIPKTLNYVNIKGLSNEAVERLNKHKPSTLGQASRLEGITPAATSLISIAIKKNQLLEKAES” is higher in “soluble fraction (log2)” value: -1.5 for the first, 0.251 for the second.

“HMSNIVNYEVYVYQNDAWDLLARYPSEKRAEAIEYAKSTEFSLNRPTKVIRETYDLDTQKFQEALIYLSE” and “HMYPEDMMSLMRRALRLINHLESNRKDRHNSRQLELTESKIRRLARYYKGRGLIETEWAYKRDQLRLLV” are within 0.2 log units of each other in “soluble fraction (log2)” value: -0.239 for the first, -0.398 for the second.

Compared with “HMSPVKAPLPGVVLDIHVSVGQEVKASDTVVTLEAMKMENAIKAGVDGKVASISVGKGDSVLEGAVLLTI”, “HMSAQDLIVRRDSARIEARVTEISPTEIRYKRASNPDGPTYVLPLGDVRSIRYANGEEEVFAPA” is lower in “soluble fraction (log2)” value: 0.0738 for the first, -0.138 for the second.

Going from “HMQNSYSVEDLALKAGLSVDTIRYYQGLDLIAPPQKNGRRAIYGDEHLSRLDEIKKLALEGFSLRQISLLK” to “HMGQKDYKTRLQEYFAKQGLKVNYEDTSHGPDHNKNFSTDVFLDGKIIGSGIGKSKKSSQQSAAKDALNIL”, the “soluble fraction (log2)” value rises from -0.652 to 0.338.

Going from “HMDTPMQEAVLQRLRDKVAQAAAGSKLPTVRQLIADYGVGQHVIQAALEKLRTEGLITSHVGKGTFVG” to “HMYPIYDYISNMYLGKHLNAGMSLEEARGIMDEMLEKLLFDVPEEYHIDRDHFYEYLKKYYTERFSA”, the “soluble fraction (log2)” value falls from 0.447 to -1.81.

“HMGLASEVKTEDVLNEEKYDFEPDLIGNNNEAIYQNKQTGSYVLFDRNQNKVTKVLSAGEVLNHSKYNE” and “HMGGSIDITTAPPGAKIYLDADYYGKTPKRLENISAGTYRLHLLHPEKGEVYRSVTLNEKNGTLKIDENLN” are within 0.2 log units of each other in “soluble fraction (log2)” value: -0.0697 for the first, 0.124 for the second.

Compared with “HMIGGEDEILKVVLEVLEEKPEAIEQYKNGRTNIVDFLVGQVMKKTRGQANPATTREFMIREIEK”, “HMWKSEAGKKIIESLAQKYNKSNAQIILRWHIQMGYIVIPGARSENHIKENINIFDFKLTNEEINNILKLN” is lower in “soluble fraction (log2)” value: 0.0588 for the first, -0.345 for the second.
